Publication PMC6677171, “Subunit interactions and arrangements in the fission yeast Mis16–Mis18–Mis19 complex” (Life Science Alliance, 2019)

Biological target: Mis16 (S. pombe), full length, affinity tag removed (S. pombe), O94244
Assay: ITC; iTC200, 30°C; 50 mM Tris pH 7.5, 100 mM NaCl, 4% glycerol, 0.5 TCEP; 26 μM protein in the cell, 260 μM peptide injected

Chain of Mis16 (S. pombe), full length, affinity tag removed (S. pombe), O94244 (O94244 whole entry): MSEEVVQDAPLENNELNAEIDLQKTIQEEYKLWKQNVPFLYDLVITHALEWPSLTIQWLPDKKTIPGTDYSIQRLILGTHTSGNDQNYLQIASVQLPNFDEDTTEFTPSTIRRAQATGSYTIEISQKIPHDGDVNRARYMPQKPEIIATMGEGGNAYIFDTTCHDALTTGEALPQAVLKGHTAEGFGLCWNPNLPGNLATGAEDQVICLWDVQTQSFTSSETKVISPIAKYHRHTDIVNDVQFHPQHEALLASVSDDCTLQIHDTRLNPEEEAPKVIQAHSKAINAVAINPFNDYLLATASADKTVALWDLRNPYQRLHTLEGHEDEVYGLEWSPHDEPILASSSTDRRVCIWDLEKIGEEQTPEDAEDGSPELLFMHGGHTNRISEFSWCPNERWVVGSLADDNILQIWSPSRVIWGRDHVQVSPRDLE

Binder LHNRAFLRRNVRAVKM (modifications not checked) [Mis19 C-terminal peptide (residues 97–112) with V101 mutated, O42995 97-112] has a Kd of 51 nM.
